Results reported in patent US10287362.
Read-outs that look alike come from different tables or passages of the source.

T1: CD73 K180A+N185G (human, UniProt P21589)
T1 chain: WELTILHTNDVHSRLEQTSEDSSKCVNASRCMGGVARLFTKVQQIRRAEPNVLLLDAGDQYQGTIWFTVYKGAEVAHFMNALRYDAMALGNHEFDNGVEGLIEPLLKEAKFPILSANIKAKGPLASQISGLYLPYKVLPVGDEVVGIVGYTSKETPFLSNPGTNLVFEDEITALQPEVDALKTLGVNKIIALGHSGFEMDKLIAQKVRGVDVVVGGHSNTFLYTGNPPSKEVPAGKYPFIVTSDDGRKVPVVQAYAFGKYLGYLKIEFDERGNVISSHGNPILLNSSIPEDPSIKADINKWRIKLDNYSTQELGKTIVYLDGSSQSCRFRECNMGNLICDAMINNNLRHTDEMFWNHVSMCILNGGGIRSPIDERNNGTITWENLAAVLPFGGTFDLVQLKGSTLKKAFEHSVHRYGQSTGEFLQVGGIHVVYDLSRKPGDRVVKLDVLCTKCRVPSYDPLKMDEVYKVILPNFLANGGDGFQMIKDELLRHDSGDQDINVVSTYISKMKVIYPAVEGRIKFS

T2: CD73 K180A (human, UniProt P21589)
T2 chain: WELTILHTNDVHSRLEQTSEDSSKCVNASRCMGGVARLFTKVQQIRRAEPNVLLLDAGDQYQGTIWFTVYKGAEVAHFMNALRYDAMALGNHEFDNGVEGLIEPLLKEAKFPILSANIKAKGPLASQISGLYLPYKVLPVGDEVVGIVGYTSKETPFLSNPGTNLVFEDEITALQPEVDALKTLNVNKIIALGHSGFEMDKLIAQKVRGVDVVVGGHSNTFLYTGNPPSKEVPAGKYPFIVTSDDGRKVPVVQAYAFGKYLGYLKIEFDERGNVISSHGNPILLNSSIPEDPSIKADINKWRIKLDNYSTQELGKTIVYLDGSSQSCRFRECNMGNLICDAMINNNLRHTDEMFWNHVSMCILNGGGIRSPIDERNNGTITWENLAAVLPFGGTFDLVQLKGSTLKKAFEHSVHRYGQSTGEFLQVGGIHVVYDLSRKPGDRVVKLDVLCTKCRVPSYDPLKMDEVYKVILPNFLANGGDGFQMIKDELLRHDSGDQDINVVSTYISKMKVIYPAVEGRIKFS

T3: CD73 N185G (human, UniProt P21589)
T3 chain: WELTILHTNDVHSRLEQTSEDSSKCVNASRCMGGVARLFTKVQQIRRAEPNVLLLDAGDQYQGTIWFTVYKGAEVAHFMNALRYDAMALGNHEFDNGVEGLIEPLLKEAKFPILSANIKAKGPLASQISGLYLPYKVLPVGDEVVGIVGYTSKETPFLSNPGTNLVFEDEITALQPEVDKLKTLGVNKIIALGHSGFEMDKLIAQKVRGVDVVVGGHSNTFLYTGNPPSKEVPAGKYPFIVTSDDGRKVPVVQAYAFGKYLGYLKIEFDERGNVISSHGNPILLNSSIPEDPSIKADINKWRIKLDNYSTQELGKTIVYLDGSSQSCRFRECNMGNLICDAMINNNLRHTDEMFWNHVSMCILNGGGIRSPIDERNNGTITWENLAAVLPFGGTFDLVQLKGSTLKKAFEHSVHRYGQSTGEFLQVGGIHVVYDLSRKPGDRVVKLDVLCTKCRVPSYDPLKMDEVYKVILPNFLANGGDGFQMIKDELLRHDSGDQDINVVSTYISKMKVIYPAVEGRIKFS

T4: human CD73 on MDA-MB-231 cells (human, UniProt P21589)
T4 chain: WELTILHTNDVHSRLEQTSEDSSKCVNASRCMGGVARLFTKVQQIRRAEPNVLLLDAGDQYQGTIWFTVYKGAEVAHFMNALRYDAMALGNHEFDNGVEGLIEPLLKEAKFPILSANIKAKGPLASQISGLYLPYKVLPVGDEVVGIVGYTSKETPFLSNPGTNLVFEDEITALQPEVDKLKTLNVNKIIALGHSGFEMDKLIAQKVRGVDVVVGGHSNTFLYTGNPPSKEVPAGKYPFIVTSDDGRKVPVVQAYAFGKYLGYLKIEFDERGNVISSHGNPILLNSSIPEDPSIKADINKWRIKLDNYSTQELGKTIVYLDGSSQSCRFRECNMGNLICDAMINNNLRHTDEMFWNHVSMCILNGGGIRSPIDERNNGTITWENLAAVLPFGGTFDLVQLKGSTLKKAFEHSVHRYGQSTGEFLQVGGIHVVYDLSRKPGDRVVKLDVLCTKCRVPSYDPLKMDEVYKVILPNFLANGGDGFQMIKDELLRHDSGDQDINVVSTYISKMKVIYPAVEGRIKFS

T5: human CD73 ECD (human, UniProt P21589)
T5 chain: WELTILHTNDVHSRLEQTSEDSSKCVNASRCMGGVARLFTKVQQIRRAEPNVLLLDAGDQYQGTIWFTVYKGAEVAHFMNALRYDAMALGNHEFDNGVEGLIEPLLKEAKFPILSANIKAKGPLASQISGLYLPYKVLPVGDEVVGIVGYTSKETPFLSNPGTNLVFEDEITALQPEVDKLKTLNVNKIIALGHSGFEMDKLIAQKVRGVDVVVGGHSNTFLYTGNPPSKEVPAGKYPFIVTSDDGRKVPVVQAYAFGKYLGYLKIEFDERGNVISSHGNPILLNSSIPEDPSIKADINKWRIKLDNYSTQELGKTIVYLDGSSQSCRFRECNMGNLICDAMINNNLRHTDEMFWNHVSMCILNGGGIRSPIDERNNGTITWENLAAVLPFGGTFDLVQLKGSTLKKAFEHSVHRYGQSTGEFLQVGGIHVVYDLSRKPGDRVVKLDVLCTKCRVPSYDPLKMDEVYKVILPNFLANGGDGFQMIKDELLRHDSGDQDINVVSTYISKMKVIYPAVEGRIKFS

T6: CD73 V144K+K180A (human, UniProt P21589)
T6 chain: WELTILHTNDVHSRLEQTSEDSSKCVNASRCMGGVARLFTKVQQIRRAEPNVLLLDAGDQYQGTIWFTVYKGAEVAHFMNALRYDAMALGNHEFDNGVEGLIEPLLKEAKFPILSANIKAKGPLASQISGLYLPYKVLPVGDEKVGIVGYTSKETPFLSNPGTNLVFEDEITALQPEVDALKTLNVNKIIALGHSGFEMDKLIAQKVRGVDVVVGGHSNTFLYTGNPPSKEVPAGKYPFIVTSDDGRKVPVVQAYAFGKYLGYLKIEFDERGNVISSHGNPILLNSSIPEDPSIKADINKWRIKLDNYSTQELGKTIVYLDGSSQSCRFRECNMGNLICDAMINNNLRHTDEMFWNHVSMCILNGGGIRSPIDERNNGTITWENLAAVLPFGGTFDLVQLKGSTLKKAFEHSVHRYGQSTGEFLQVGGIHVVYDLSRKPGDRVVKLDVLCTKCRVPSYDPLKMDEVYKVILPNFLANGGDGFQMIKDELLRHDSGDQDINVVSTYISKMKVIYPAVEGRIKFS

T7: murine CD73 on 4T1 cells (mouse, UniProt Q61503)
T7 chain: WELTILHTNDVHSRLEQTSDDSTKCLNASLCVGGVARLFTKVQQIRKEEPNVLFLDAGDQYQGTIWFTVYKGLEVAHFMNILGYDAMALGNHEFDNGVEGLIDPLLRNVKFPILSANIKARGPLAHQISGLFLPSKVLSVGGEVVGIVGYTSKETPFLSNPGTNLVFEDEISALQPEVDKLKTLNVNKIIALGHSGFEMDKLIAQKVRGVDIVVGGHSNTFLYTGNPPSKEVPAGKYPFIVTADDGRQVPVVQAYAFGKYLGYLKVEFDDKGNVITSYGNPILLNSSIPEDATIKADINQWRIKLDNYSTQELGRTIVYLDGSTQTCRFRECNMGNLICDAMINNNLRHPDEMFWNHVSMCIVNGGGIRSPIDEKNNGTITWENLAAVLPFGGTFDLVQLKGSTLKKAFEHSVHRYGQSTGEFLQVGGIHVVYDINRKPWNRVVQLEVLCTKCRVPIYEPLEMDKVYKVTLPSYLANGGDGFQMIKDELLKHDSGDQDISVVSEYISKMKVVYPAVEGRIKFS

T8: CD73 V144K+N185G (human, UniProt P21589)
T8 chain: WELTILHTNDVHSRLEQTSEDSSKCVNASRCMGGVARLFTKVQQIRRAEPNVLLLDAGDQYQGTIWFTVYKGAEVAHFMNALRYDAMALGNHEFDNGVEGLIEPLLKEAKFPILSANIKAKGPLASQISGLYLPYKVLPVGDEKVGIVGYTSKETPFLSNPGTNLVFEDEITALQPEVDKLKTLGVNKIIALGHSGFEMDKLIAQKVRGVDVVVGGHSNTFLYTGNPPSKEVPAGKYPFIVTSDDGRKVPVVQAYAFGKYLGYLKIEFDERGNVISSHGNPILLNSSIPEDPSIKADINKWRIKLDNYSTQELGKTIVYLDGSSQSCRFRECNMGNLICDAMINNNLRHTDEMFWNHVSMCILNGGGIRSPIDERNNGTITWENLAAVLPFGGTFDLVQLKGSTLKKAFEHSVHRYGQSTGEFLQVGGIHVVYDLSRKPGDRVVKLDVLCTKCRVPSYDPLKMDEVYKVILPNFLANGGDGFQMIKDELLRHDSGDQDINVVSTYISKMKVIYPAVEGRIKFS

T9: CD73 V144K (human, UniProt P21589)
T9 chain: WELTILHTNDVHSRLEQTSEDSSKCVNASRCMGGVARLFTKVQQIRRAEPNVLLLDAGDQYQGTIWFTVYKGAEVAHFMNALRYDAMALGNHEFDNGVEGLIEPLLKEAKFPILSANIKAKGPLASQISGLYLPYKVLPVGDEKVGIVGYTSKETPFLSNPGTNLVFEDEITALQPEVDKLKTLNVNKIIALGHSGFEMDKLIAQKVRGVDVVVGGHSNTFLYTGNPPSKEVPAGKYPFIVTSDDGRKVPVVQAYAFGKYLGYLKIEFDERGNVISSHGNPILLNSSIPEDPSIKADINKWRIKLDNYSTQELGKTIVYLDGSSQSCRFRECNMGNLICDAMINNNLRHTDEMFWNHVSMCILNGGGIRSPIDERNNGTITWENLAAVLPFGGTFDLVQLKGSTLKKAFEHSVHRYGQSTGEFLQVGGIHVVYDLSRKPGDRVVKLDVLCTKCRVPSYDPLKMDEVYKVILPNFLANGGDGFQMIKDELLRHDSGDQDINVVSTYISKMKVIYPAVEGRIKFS

T10: murine CD73 ECD (mouse, UniProt Q61503)
T10 chain: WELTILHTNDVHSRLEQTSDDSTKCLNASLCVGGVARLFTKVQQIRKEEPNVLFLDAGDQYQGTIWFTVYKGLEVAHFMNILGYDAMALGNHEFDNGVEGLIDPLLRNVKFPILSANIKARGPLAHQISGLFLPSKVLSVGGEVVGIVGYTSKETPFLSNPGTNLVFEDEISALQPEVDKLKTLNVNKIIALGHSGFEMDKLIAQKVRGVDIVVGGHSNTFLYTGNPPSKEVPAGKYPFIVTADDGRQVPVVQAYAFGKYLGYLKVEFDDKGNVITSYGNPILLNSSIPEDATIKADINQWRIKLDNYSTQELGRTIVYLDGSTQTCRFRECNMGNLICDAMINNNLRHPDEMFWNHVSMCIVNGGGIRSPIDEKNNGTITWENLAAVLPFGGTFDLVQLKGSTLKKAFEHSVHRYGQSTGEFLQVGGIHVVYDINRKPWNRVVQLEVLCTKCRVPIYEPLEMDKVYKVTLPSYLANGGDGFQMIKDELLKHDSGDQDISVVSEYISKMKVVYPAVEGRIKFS


Experiments:
[1] = target: T1, CD73 K180A+N185G; test: SPR, bivalent
[2] = target: T2, CD73 K180A; test: SPR, bivalent
[3] = target: T3, CD73 N185G; test: SPR, bivalent
[4] = target: T4, human CD73 on MDA-MB-231 cells; test: FACS
[5] = target: T5, human CD73 ECD; test: SPR
[6] = target: T4, human CD73 on MDA-MB-231 cells; test: FACS
[7] = target: T5, human CD73 ECD; test: SPR, bivalent
[8] = target: T6, CD73 V144K+K180A; test: SPR, bivalent
[9] = target: T5, human CD73 ECD; test: SPR
[10] = target: T7, murine CD73 on 4T1 cells; test: FACS
[11] = target: T8, CD73 V144K+N185G; test: SPR, bivalent
[12] = target: T9, CD73 V144K; test: SPR, bivalent
[13] = target: T7, murine CD73 on 4T1 cells; test: FACS
[14] = target: T10, murine CD73 ECD; test: SPR
[15] = target: T10, murine CD73 ECD; test: SPR
[16] = target: T5, human CD73 ECD

Binder	binding result [1]	Kd [2] [pM]	Kd [3] [pM]	Kd [4] [pM]	Kd [5] [pM]	Kd [6] [pM]	Kd [7] [pM]	Kd [8] [pM]	Kd [9] [pM]	Kd [10] [pM]	binding result [11]	Kd [12] [pM]	Kd [13] [pM]	Kd [14] [pM]	Kd [15] [pM]	Kd [16] [pM]
MEDI9447 (73combo3, clone 10.3) (antibody, V domains shown) VH: EVQLLESGGGLVQPGGSLRLSCAASGFTFSSYAYSWVRQAPGKGLEWVSAISGSGGRTYYADSVKGRFTISRDNSKNTLYLQMNSLRAEDTAVYYCARLGYGRVDEWGRGTLVTVSS VL: QSVLTQPPSASGTPGQRVTISCSGSLSNIGRNPVNWYQQLPGTAPKLLIYLDNLRLSGVPDRFSGSKSGTSASLAISGLQSEDEADYYCATWDDSHPGWTFGGGTKLTVL	no binding	43.5	26.9	154	4.1	154	4.2	2680	4	113	no binding	81.4	113	0.9	1	
MEDI9447 Fab (antibody, V domains shown) VH: EVQLLESGGGLVQPGGSLRLSCAASGFTFSSYAYSWVRQAPGKGLEWVSAISGSGGRTYYADSVKGRFTISRDNSKNTLYLQMNSLRAEDTAVYYCARLGYGRVDEWGRGTLVTVSS VL: QSVLTQPPSASGTPGQRVTISCSGSLSNIGRNPVNWYQQLPGTAPKLLIYLDNLRLSGVPDRFSGSKSGTSASLAISGLQSEDEADYYCATWDDSHPGWTFGGGTKLTVL																327
